Laboratory results from US9273146 (Takeda / Millennium, dated 2016).
Values belong to the binder of their own block, whether it stands above or below them.

Experiments:
[1] = molecular target: T1, human GCC (guanylyl cyclase C) (human, UniProt P25092 24-1073); experiment: IHC on FFPE GCC-transfected and parental cell pellets
T1 construct: Target of the IHC on formalin-fixed, paraffin-embedded HEK293-GCC xenografts, GCC-transfected cell pellets and human colon tissues; also called hGCC; STAR

[2] = molecular target: T1, human GCC (guanylyl cyclase C); experiment: automated IHC (TechMate) on FFPE colon tumors and cell pellets, antibody at 1.0 ug/ml overnight

T1 sequence (P25092 24-1073 limits assumed): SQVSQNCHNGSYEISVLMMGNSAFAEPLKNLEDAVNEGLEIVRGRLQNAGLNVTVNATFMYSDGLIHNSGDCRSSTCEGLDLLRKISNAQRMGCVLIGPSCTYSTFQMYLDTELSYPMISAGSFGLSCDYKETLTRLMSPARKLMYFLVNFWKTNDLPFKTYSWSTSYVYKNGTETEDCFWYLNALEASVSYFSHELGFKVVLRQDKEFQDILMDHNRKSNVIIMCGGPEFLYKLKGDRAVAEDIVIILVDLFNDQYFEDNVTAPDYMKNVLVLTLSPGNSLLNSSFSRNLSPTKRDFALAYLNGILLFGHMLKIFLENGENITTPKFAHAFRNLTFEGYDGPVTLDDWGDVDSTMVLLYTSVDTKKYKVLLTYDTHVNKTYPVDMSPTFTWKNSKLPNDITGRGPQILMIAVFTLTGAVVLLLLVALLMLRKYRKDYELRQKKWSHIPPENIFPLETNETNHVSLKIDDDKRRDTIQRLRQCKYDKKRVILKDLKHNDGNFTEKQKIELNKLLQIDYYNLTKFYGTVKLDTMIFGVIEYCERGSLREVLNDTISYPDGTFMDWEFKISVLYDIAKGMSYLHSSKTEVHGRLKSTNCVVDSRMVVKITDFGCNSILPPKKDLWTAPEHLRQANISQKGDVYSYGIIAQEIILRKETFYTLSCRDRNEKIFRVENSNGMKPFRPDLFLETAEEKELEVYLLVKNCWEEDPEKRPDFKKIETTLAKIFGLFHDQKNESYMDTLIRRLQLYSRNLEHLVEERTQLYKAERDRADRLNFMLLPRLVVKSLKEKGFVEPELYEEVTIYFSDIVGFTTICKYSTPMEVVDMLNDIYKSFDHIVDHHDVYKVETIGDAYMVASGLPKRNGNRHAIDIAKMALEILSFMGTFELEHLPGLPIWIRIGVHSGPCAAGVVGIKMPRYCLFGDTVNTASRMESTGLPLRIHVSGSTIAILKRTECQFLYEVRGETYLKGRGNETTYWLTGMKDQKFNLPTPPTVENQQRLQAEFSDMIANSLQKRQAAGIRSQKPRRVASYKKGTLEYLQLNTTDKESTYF

binding result [1]: binds
B1: MIL-44-67-4 (antibody, V domains shown)
VH: QSVEESGGRLVTPGTPLTLTCTASGSDISNYAISWVRQAPGKGLEFIGYISYGKSIYYASWAKGRFAISKTSSTTVDLEITSPTTEDTATYFCAREDSATYSPNLWGPGTLVTVSS
VL: AYDMTQTPASVEVAVGGTVTIKCQASQSINTYLAWYQQKPGQRPKLLIYRASTLASGVSSRFKGSGSGTEFTLTISGVECADAATYYCQQGYSYNNLDRAFGGGTEVVVTG
notes: Rabbit monoclonal IgG from a rabbit-rabbit hybridoma; also called MIL-44-67-4 antibody; subclone #67-4

binding result [2]: binds
B2: MIL-44-148-2 (antibody, V domains shown)
VH: QSVKESGGGLFKPTDTLTLTCTVSGFSLSSHRMNWVRQTPGKGLEWIAIITHNSITYYASWAKSRSTITRNTSENTVTLKMTSLTAADTATYFCAREDSMGYYFDLWGPGTLVTISS
VL: AYDMTQTPASVEVAVGGTVTIKCQASQSISNWLAWYQQKPGQSPKPLIYRASTLASGVSSRFRGSGSGTQFTLTISGVECADAATYYCQQTYTNNHLDNGFGGGTEVVVKG
notes: Rabbit monoclonal IgG from a rabbit-rabbit hybridoma
